# Laboratory results: article doi:10.1101/2023.03.20.533423 (bioRxiv, 2023)
# T1: M. tb ParB with C-terminal 6xHis-tag (M. tuberculosis, UniProt P9WIJ9 1-344)
# T1 sequence: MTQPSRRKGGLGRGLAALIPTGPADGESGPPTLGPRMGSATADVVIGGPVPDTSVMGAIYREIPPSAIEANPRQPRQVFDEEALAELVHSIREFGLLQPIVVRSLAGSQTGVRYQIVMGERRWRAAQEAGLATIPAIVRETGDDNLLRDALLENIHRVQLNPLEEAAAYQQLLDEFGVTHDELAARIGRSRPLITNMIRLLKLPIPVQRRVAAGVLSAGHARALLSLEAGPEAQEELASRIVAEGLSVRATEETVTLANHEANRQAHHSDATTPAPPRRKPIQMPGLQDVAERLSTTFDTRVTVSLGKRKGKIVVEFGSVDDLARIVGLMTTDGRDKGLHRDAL
# Biological target: T1, M. tb ParB with C-terminal 6xHis-tag
# Assay: pull-down
binder,measurement,value
GST-Rv1708 (natural protein) MPAGLPGQASVAVRLSCDVPPDARHHEPRPGMTDHPDTGNGIGLTGRPPRAIPDPAPRSSHGPAKVIAMCNQKGGVGKTTSTINLGAALGEYGRRVLLVDMDPQGALSAGLGVPHYELDKTIHNVLVEPRVSIDDVLIHSRVKNMDLVPSNIDLSAAEIQLVNEVGREQTLARALYPVLDRYDYVLIDCQPSLGLLTVNGLACTDGVIIPTECEFFSLRGLALLTDTVDKVRDRLNPKLDISGILITRYDPRTVNSREVMARVVERFGDLVFDTVITRTVRFPETSVAGEPITTWAPKSAGALAYRALARELIDRFGM,binding result,binds
